Experimental data from the supplement of paper PMC7125110.
± gives the standard error. Fewer inactive variants are shown than the library holds.

B1: glmS ribozyme (parent)
chain: AUAAAAGCGCCAGAACUACAGAAAUGUAGUUGACGAGGAGGAGGUUUAUCGAAUUUUCGGCGGAUGCCUCCAAA

Experiments:
Conditions in all cases: with glucosamine-6-phosphate
glucosamine-6-phosphate [1] = variants of: B1; assay: self-cleavage kobs at 40 uM GlcN6P; higher = faster cleavage; RNA array
Method in brief: (§1)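 kobs was derived by fitting per-tile medians to one- or two-exponential decays after normalising signals to baseline and to non-cleaving reference variants. Those signals came from barcoded ribozyme variants transcribed in situ by E. coli RNA polymerase on sequenced MiSeq chips, followed through a hybridised Cy3 probe at 37 °C and imaged over ~14 h. Glucosamine-6-phosphate (40 μM to 10 mM) in HEPES/KCl/Mg(OAc)2 buffer was flowed in. Weighted Michaelis–Menten fits across concentrations then gave kcat and KM.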

glucosamine-6-phosphate [2] = variants of: B1; assay: self-cleavage kobs at 160 uM GlcN6P; higher = faster cleavage; RNA array
Method in brief: as §1

glucosamine-6-phosphate [3] = variants of: B1; assay: self-cleavage kobs at 2500 uM GlcN6P; higher = faster cleavage; RNA array
Method in brief: as §1

glucosamine-6-phosphate [4] = variants of: B1; assay: self-cleavage kobs at 10000 uM GlcN6P; higher = faster cleavage; RNA array
Method in brief: as §1

glucosamine-6-phosphate [5] = variants of: B1; assay: self-cleavage kobs at 640 uM GlcN6P; higher = faster cleavage; RNA array
Method in brief: as §1

Variant	self-cleavage kobs at 40 uM GlcN6P (glucosamine-6-phosphate [1]) [s⁻¹]	self-cleavage kobs at 160 uM GlcN6P (glucosamine-6-phosphate [2]) [s⁻¹]	self-cleavage kobs at 2500 uM GlcN6P (glucosamine-6-phosphate [3]) [s⁻¹]	self-cleavage kobs at 10000 uM GlcN6P (glucosamine-6-phosphate [4]) [s⁻¹]	self-cleavage kobs at 640 uM GlcN6P (glucosamine-6-phosphate [5]) [s⁻¹]
A15C A33U	< 1e-05	< 1e-05	–	–	–
A14U C16U G29U C50A G62U	< 1e-05	–	–	–	–
C16U U47C	7.47e-05 ± 1.5e-05	–	0.00165 ± 0.00046	0.00228 ± 0.00034	–
C16G G40U U65C	< 1e-05	–	–	–	< 1e-05
C16U C34U	< 1e-05	< 1e-05	–	< 1e-05	–
A24U	0.002 ± 0.0003	–	–	–	–
A14U G43C U69A	< 1e-05	–	–	< 1e-05	–
C16G U57C	< 1e-05	< 1e-05	–	3.37e-05 ± 1.2e-05	–
C16A A52U G60A C71G	5.98e-05 ± 2.3e-05	–	–	–	–
A15G C34A	< 1e-05	< 1e-05	–	–	< 1e-05
C16A C70U	5.31e-05 ± 7.6e-06	0.000117 ± 3.3e-05	0.000365 ± 5.1e-05	0.0015 ± 0.00026	0.000192 ± 2.7e-05
C16U G32U A48C G59C	< 1e-05	–	–	< 1e-05	–
C16A G32C G41C C68U C70A C71U	< 1e-05	–	–	–	–
A14G A33G G59U	< 1e-05	–	–	–	–
A15U A52U G66C	< 1e-05	< 1e-05	–	–	–
A15G A64U C68U	< 1e-05	–	–	–	–
G26U C70U	0.000967 ± 0.00041	0.00126 ± 0.00046	0.000552 ± 0.0002	–	–
C16U G60C C67A	< 1e-05	–	–	–	–
A15U C61G	< 1e-05	–	–	< 1e-05	–
A14U U45G G62C	< 1e-05	–	–	< 1e-05	–
A14G G44U A64U	< 1e-05	–	< 1e-05	–	< 1e-05
C16A G38A	< 1e-05	–	–	–	–
C16A C58U	< 1e-05	< 1e-05	–	3.14e-05 ± 1.3e-05	–
A14G G44C C61A C68G	< 1e-05	–	–	–	–
A14G C70G	9.61e-05 ± 1.2e-05	0.000203 ± 1.9e-05	0.0009 ± 0.00022	–	0.000614 ± 0.00013

Variant	self-cleavage kobs at 40 uM GlcN6P (glucosamine-6-phosphate [1]) [s⁻¹]	self-cleavage kobs at 160 uM GlcN6P (glucosamine-6-phosphate [2]) [s⁻¹]	self-cleavage kobs at 2500 uM GlcN6P (glucosamine-6-phosphate [3]) [s⁻¹]	self-cleavage kobs at 10000 uM GlcN6P (glucosamine-6-phosphate [4]) [s⁻¹]	self-cleavage kobs at 640 uM GlcN6P (glucosamine-6-phosphate [5]) [s⁻¹]
A15C G29C U30C U31G G38C G60A U69G	< 1e-05	–	–	–	–
A14U G35U U69G	0.000295 ± 0.00012	–	–	6.56e-05 ± 1.9e-05	–
C16U G41A U56C	< 1e-05	–	–	3.75e-05 ± 1.4e-05	–
C16G A39G G51U U55A	< 1e-05	–	–	–	< 1e-05
A14U A52C C71G	< 1e-05	–	–	–	< 1e-05
A14G G51C	< 1e-05	–	–	< 1e-05	< 1e-05
A14U C16G G32U G44A A48C C61U U69G	< 1e-05	–	–	–	–
A14G U30A A39G A53C	9.97e-05 ± 2.6e-05	–	–	0.00799 ± 0.0023	–
A14G C34A G38U	< 1e-05	–	–	–	–
C16G A33U	< 1e-05	–	–	3.36e-05 ± 1e-05	–
C16G G29C	0.000686 ± 9.2e-05	0.00103 ± 0.00047	0.00501 ± 0.0018	0.0294 ± 0.0058	0.00972 ± 0.0043
C16A C34A G37U C50A C61A	0.000276 ± 6.5e-05	–	–	0.000316 ± 6.4e-05	–
G21U G43U G51U	< 1e-05	–	–	< 1e-05	< 1e-05
A15G G32U U56G G60U	< 1e-05	–	–	–	–
A14G A15U G29A	3.49e-05 ± 1.3e-05	–	–	0.00133 ± 0.00028	–
A15G U47A	0.000718 ± 0.00011	–	0.0116 ± 0.0042	0.03 ± 0.0073	–
C16U A42G C61G	< 1e-05	–	–	–	–
A15U A39C G41C	< 1e-05	–	< 1e-05	–	< 1e-05
A14U U46G G63A U65A C70G C71G	4.47e-05 ± 2e-05	–	–	–	–
A14U A33U C34G G35C U69A	3.35e-05 ± 1e-05	–	–	7.09e-05 ± 1.3e-05	–
A15C U30G	0.00258 ± 0.00062	0.00591 ± 0.0015	0.0288 ± 0.011	0.153 ± 0.058	0.0305 ± 0.0089
C16U U54C	0.000813 ± 0.00013	0.00146 ± 0.00024	0.00606 ± 0.0012	0.0254 ± 0.0047	0.00641 ± 0.001
C16U U54A	0.000888 ± 0.00012	0.00185 ± 0.0004	0.00607 ± 0.0014	0.0405 ± 0.0081	0.00323 ± 0.00079
A15G A52G C58G	< 1e-05	–	–	8.04e-05 ± 2.1e-05	–
A15U G51U C71A	< 1e-05	–	–	< 1e-05	–

Variant	self-cleavage kobs at 40 uM GlcN6P (glucosamine-6-phosphate [1]) [s⁻¹]	self-cleavage kobs at 160 uM GlcN6P (glucosamine-6-phosphate [2]) [s⁻¹]	self-cleavage kobs at 2500 uM GlcN6P (glucosamine-6-phosphate [3]) [s⁻¹]	self-cleavage kobs at 10000 uM GlcN6P (glucosamine-6-phosphate [4]) [s⁻¹]	self-cleavage kobs at 640 uM GlcN6P (glucosamine-6-phosphate [5]) [s⁻¹]
C16U C70U	0.00111 ± 0.00017	0.000974 ± 0.0002	0.00209 ± 0.0004	0.00694 ± 0.0028	0.00284 ± 0.0011
A15U C50G C61A	0.000142 ± 3e-05	–	–	7.29e-05 ± 1.7e-05	–
A15C A36G	< 1e-05	< 1e-05	< 1e-05	< 1e-05	< 1e-05
A15U A36C U46G	< 1e-05	–	–	< 1e-05	–
C16U C67U	0.000314 ± 3.3e-05	0.000412 ± 0.00014	0.00294 ± 0.00071	0.0126 ± 0.0021	0.00186 ± 0.00024
C16U U30A C58G A73U	< 1e-05	–	–	–	–
A14U U49A	< 1e-05	< 1e-05	–	–	< 1e-05
A15C C61U U69G	< 1e-05	–	–	< 1e-05	–
A15C G32U G60U	< 1e-05	–	–	< 1e-05	–
C16U C34G U57A G62U	< 1e-05	–	–	< 1e-05	–
C16U G37A	7.36e-05 ± 1.1e-05	0.000108 ± 1.3e-05	0.00123 ± 0.00015	0.00262 ± 0.00044	0.000713 ± 7.9e-05
C16G G59U	< 1e-05	–	< 1e-05	–	< 1e-05
C16G G62U C67G	< 1e-05	–	–	–	–
C16G G51A	< 1e-05	< 1e-05	–	< 1e-05	–
A14U G62A	< 1e-05	–	< 1e-05	< 1e-05	< 1e-05
G26U C50G A52C U56G G66C C67U C71U	0.000243 ± 7.9e-05	–	–	0.000101 ± 2.7e-05	0.000548 ± 0.00021
A14G U46G C67A	0.000265 ± 6.3e-05	–	–	0.00474 ± 0.0012	–
C16G U65C C71G	< 1e-05	–	–	< 1e-05	–
A15G U47G G60A C61U C68A	6.07e-05 ± 2.7e-05	–	0.00013 ± 3.6e-05	–	0.000299 ± 9.2e-05
C16U G40U U56A C71G	3.89e-05 ± 1.1e-05	–	–	0.00169 ± 0.00032	–
C16A G29U	0.000701 ± 7.4e-05	0.00212 ± 0.00064	0.0144 ± 0.0033	0.0387 ± 0.0071	0.00517 ± 0.00081
A15U G59C	< 1e-05	< 1e-05	< 1e-05	< 1e-05	< 1e-05
A15C G37U	< 1e-05	–	–	< 1e-05	< 1e-05
A14G G38A	< 1e-05	–	–	–	–
A15G C34A G62U	< 1e-05	–	–	< 1e-05	–

Variant	self-cleavage kobs at 40 uM GlcN6P (glucosamine-6-phosphate [1]) [s⁻¹]	self-cleavage kobs at 160 uM GlcN6P (glucosamine-6-phosphate [2]) [s⁻¹]	self-cleavage kobs at 2500 uM GlcN6P (glucosamine-6-phosphate [3]) [s⁻¹]	self-cleavage kobs at 10000 uM GlcN6P (glucosamine-6-phosphate [4]) [s⁻¹]	self-cleavage kobs at 640 uM GlcN6P (glucosamine-6-phosphate [5]) [s⁻¹]
A15G U30G	0.000265 ± 4.2e-05	0.000476 ± 0.00016	–	0.00934 ± 0.002	0.00124 ± 0.00035
A14G G66A	0.000901 ± 0.00011	0.00369 ± 0.0009	0.0046 ± 0.001	0.0634 ± 0.015	0.00997 ± 0.0018
C16G G29U U46G	4.6e-05 ± 1.8e-05	–	–	0.00136 ± 0.00039	–
C16G C34G C50A A64G	< 1e-05	–	–	–	–
A15U G32U A33U	< 1e-05	–	–	–	–
A15U C34A A52U	< 1e-05	–	–	< 1e-05	–
A15C G32C A64U C67A	< 1e-05	–	–	–	–
A18G	0.00161 ± 0.00045	–	–	0.0231 ± 0.01	–
A18C	0.00108 ± 0.0003	0.00647 ± 0.0023	–	–	0.0169 ± 0.0041
A23C C71U	0.00121 ± 0.0003	0.000719 ± 0.0002	–	–	0.00652 ± 0.0018
C16U C71U	0.000761 ± 6.6e-05	0.00136 ± 0.00015	0.0356 ± 0.017	0.0301 ± 0.0059	0.00431 ± 0.00077
A15G C67U	0.000329 ± 5.2e-05	0.000674 ± 0.00013	0.00538 ± 0.0014	0.00828 ± 0.0017	0.00169 ± 0.00028
A15C U69C	0.000108 ± 2.5e-05	–	0.000165 ± 4.4e-05	0.00087 ± 0.00022	0.000226 ± 8.5e-05
A14G G32A U49A	< 1e-05	–	–	–	–
A15G A53G	0.00127 ± 0.00016	0.00183 ± 0.00039	0.022 ± 0.0053	0.0345 ± 0.008	0.0109 ± 0.0017
A14U G41U C68A C70U	< 1e-05	–	–	–	–
C16G G38C	< 1e-05	< 1e-05	–	–	–
A15G G29A	0.000133 ± 3.8e-05	0.000309 ± 8.6e-05	0.00164 ± 0.00031	0.0196 ± 0.0068	0.00108 ± 0.00019
A15C A39G G40A G59C	< 1e-05	–	–	–	–
A15U C34G	< 1e-05	< 1e-05	–	< 1e-05	< 1e-05
C16U G35A	< 1e-05	< 1e-05	–	–	< 1e-05
A15G C68A C70U	< 1e-05	–	–	–	–
A14G A42G	0.0027 ± 0.00037	0.00391 ± 0.0011	0.0467 ± 0.022	0.0773 ± 0.025	0.00956 ± 0.0029
